{"source": "patent US7642046B2", "about": "“Method for monitoring recruitment of proteins to the intracellular domain of a receptor in intact cells” (priority 2001, dated 2010)", "key": {"[1]": {"target": "T1, LTβR (Homo sapiens, UniProt P25942+P36941)", "T1 construct": "cDNA fragments encoding for the transmembrane and cytoplasmic domains of the LTβR, TACI, the p75TNF receptor, CD27; expressed in transfected cells; host or cells: 293T", "T1 sequence (P25942+P36941 fused)": "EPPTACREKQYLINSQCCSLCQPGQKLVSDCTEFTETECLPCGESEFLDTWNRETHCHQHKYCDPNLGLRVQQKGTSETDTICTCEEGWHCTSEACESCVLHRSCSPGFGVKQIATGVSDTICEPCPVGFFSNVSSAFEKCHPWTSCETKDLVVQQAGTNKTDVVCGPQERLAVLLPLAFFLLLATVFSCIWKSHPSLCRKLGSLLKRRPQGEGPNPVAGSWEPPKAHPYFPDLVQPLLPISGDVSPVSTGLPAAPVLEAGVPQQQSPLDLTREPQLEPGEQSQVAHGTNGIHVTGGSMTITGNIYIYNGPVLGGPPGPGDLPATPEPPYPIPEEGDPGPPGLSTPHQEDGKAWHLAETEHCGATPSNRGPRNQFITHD", "assay": "Recruitment assay with hybrid receptor (CD40 extracellular domain, LTβR transmembrane and intracellular domain)", "format": "cell-based", "settings": "293T cells, CD40 as relative standard", "protocol": "(§1) The recruitment of TRAF to CD40 can be quantitatively measured using the assay described in example 1. For that purpose, the assay conditions were adjusted in such a way that TRAF expression was in significant excess over the expression of CD40. This was the case when the TRAF expression plasmid was used at a two to three fold excess over the CD40 expression plasmid. The CD40 bound TRAF concentration was measured as described in example 1. A reference extract containing CD40/TRAF complexes served as a standard in each assay. This standard extract consisted of a large pool extract from cells that had been co-transfected with the plasmids encoding CD40/TRAF1, CD40/TRAF2, CD40/TRAF3, CD40/TRAF5 and CD40/TRAF6. The extracts were tested for the presence of CD40/TRAF complexes and the complex concentrations in each extract were arbitrarily defined as 1000 U/ml. The extracts were frozen in small aliquots and kept at −80° C. until further use. By comparing unknown samples to these extracts, it was possible to determine the relative CD40-TRAF complex concentrations in arbitrary units. The necessary normalization for sample-to-sample variations in the CD40 expression was calculated with the following formula: […]\nRecruitment of various TRAFs to receptors different to CD40, was tested by the recruitment assay described in example 1 by transforming cells with expression plasmids encoding hybrids receptors comprising the extracellular domain of CD40 and transmembrane and intracellular domain of anyone of the following receptors: BCMA (Madry et al. 1998 and Hatzoglou et al. 2000) the LTβR-receptor (Mosialos et al. 1995, Crowe et al. 1994, Nakano et al. 1996), TACI (von Bulow et al. 1997, Xia et al. 2000) the p75TNFR (Rothe et al. 1994) and the CD27 (Gravestein et al. 1998, Akiba et al. 1998) (for details of constructs see example 7). Measurement of TRAF recruitment to the signalling domains of BCMA the LTβR-receptor TACI the p75TNFR or the CD27 was carried out by co-transfecting 293T cells with a plasmid encoding anyone of the above hybrid receptors together with a plasmid encoding TRAF and measurement of the TRAF/Receptor complex using the ELISA sandwich described in example 1 and the quantitation as described in example 3. The assay with the hybrid receptors is schematically represented in FIG. 4A. The results shown in FIG. 4B indicate that, using the assay monitoring recruitment in intact cells, any TRAF recruiting receptor of the TNF/NGF family can be examined with the same antibody sandwich assay described in example 1 and the amount of TRAF-receptor/CD40 hybrid complex can be monitored as described in example 3. […] Recruitment of TRAF3 to all the receptors tested is similar. […]"}, "[2]": {"target": "T2, CD40 (Homo sapiens, UniProt P25942)", "T2 construct": "expressed in transfected cells; host or cells: HEK 293T", "T2 sequence (P25942 21-277)": "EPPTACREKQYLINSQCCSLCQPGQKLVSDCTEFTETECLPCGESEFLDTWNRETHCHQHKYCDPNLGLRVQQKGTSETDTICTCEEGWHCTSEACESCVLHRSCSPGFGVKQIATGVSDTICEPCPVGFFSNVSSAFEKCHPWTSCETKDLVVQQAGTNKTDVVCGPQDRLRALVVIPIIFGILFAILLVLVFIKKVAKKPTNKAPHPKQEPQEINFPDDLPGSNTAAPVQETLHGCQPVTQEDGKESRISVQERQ", "assay": "TRAF binding to CD40 in cell lysate: separately expressed extracts mixed 1:1, ELISA", "settings": "extracts mixed 1:1, over night at 4° C.", "text": "To measure TRAF recruitment to CD40 many studies relied on experimental systems that probe TRAF binding to synthetic peptides or soluble fragments of the CD40 signaling domain (Rothe et al. 1994, Hu et al. 1994, Cheng et al. 1995, Mosialos et al. 1995, Ishida et al. it 1996, Ishida et al. b 1996, Boucher et al. 1997, Pullen et al. 1998 and Pullen et al. 1999). […] Therefore, recruitment of TRAF1 and TRAF2 by CD40 intact cells versus cell lysate was compared. In the experiment, CD40 and TRAF1 or TRAF2 were co-expressed or expressed separately in 293T cells (constructs described in example 7 below). Plasmid concentrations and ratios were identical to the experiment described in example 1. After 27 hours, the cells were detergent lysed as in example 1. The extracts from 293T cells expressing only CD40 or the TRAF of interest were mixed at a 1:1 ratio and incubated over night at 4° C. Extracts expressing both CD40 and the TRAF of interest were kept under identical conditions. Then the samples were incubated on microtiter plates coated with a mAb against the extra-cellular domain of CD40 as described in example 1. After a washing step, CD40 bound TRAFs were detected with anti TRAF antibodies (example 1). Quantitation of TRAF recruited to CD40 was carried out as described in the example 3 below."}, "[3]": {"target": "T3, p75TNFR (Homo sapiens, UniProt P20333+P25942)", "T3 construct": "cDNA fragments encoding for the transmembrane and cytoplasmic domains of the LTβR, TACI, the p75TNF receptor, CD27; expressed in transfected cells; host or cells: 293T", "T3 sequence (P25942+P20333 fused)": "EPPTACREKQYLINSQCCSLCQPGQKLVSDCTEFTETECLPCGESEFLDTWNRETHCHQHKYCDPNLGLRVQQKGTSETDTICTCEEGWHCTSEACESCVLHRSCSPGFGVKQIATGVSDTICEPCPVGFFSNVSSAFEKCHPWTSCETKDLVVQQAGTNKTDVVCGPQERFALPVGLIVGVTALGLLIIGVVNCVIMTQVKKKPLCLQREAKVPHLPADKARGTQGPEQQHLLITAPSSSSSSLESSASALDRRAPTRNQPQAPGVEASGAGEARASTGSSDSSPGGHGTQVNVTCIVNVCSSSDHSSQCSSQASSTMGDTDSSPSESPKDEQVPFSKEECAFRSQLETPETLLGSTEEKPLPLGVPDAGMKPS", "assay": "Recruitment assay with hybrid receptor (CD40 extracellular domain, p75TNFR transmembrane and intracellular domain)", "format": "cell-based", "settings": "293T cells, CD40 as relative standard", "protocol": "as §1, with “By comparing unknown samples to these extracts, it was possible to determine the relative CD40-TRAF complex concentrations in arbitrary units.” left out\nRecruitment of various TRAFs to receptors different to CD40, was tested by the recruitment assay described in example 1 by transforming cells with expression plasmids encoding hybrids receptors comprising the extracellular domain of CD40 and transmembrane and intracellular domain of anyone of the following receptors: BCMA (Madry et al. 1998 and Hatzoglou et al. 2000) the LTβR-receptor (Mosialos et al. 1995, Crowe et al. 1994, Nakano et al. 1996), TACI (von Bulow et al. 1997, Xia et al. 2000) the p75TNFR (Rothe et al. 1994) and the CD27 (Gravestein et al. 1998, Akiba et al. 1998) (for details of constructs see example 7). Measurement of TRAF recruitment to the signalling domains of BCMA the LTβR-receptor TACI the p75TNFR or the CD27 was carried out by co-transfecting 293T cells with a plasmid encoding anyone of the above hybrid receptors together with a plasmid encoding TRAF and measurement of the TRAF/Receptor complex using the ELISA sandwich described in example 1 and the quantitation as described in example 3. […]"}}}
{"molecule": "TRAF2: TNF receptor associated factor 2, human adaptor protein expressed from pcDNA3 (protein, UniProt Q12933 1-501, looked up, full-length, TNF receptor associated factor 2, human adaptor protein expressed from pcDNA3) MAAASVTPPGSLELLQPGFSKTLLGTKLEAKYLCSACRNVLRRPFQAQCGHRYCSFCLASILSSGPQNCAACVHEGIYEEGISILESSSAFPDNAARREVESLPAVCPSDGCTWKGTLKEYESCHEGRCPLMLTECPACKGLVRLGEKERHLEHECPERSLSCRHCRAPCCGADVKAHHEVCPKFPLTCDGCGKKKIPREKFQDHVKTCGKCRVPCRFHAIGCLETVEGEKQQEHEVQWLREHLAMLLSSVLEAKPLLGDQSHAGSELLQRCESLEKKTATFENIVCVLNREVERVAMTAEACSRQHRLDQDKIEALSSKVQQLERSIGLKDLAMADLEQKVLEMEASTYDGVFIWKISDFARKRQEAVAGRIPAIFSPAFYTSRYGYKMCLRIYLNGDGTGRGTHLSLFFVVMKGPNDALLRWPFNQKVTLMLLDQNNREHVIDAFRPDVTSSSFQRPVNDMNIASGCPLFCPVSKMEAKNSYVRDDAIFIKAIVDLTGL", "values": [{"measurement": "recruitment to LTβR, folds higher than recruitment to CD40", "setting": "[1]", "result": "about 60 fold"}, {"measurement": "binding to CD40 in cell lysate", "setting": "[2]", "result": "barely detectable"}, {"measurement": "recruitment to p75TNFR, folds higher than recruitment to CD40", "setting": "[3]", "result": "about 60 fold"}]}
{"molecule": "TRAF1: TNF receptor associated factor 1, adaptor protein overexpressed in 293T cells from pcDNA3 (protein, UniProt Q13077 1-416, looked up, full-length, TNF receptor associated factor 1, adaptor protein overexpressed in 293T cells from pcDNA3) MASSSGSSPRPAPDENEFPFGCPPTVCQDPKEPRALCCAGCLSENPRNGEDQICPKCRGEDLQSISPGSRLRTQEKAHPEVAEAGIGCPFAGVGCSFKGSPQSVQEHEVTSQTSHLNLLLGFMKQWKARLGCGLESGPMALEQNLSDLQLQAAVEVAGDLEVDCYRAPCSESQEELALQHFMKEKLLAELEGKLRVFENIVAVLNKEVEASHLALATSIHQSQLDRERILSLEQRVVELQQTLAQKDQALGKLEQSLRLMEEASFDGTFLWKITNVTRRCHESACGRTVSLFSPAFYTAKYGYKLCLRLYLNGDGTGKRTHLSLFIVIMRGEYDALLPWPFRNKVTFMLLDQNNREHAIDAFRPDLSSASFQRPQSETNVASGCPLFFPLSKLQSPKHAYVKDDTMFLKCIVETST", "values": [{"measurement": "recruitment to LTβR, folds higher than recruitment to CD40", "setting": "[1]", "result": 25, "unit": "fold"}, {"measurement": "binding to CD40 in cell lysate", "setting": "[2]", "result": "barely detectable"}, {"measurement": "recruitment to p75TNFR, folds higher than recruitment to CD40", "setting": "[3]", "result": 25, "unit": "fold"}]}
